How the values were obtained:
[1] = evaluation of dye-labeled nucleotides including guanine (sequencing assay); conditions: lacks the hyp10 linker
Method: Nucleotides including guanine or analogs thereof may perform more poorly in sequencing applications (e.g., as described herein) in base-calling accuracy. This may be related to photoinduced electron transfer from the nucleobase to a dye linked to the nucleobase, which may quench signal emitted by the dye and thus less dynamic range of signal. Accordingly, various dye-labeled nucleotides including guanine or analogs thereof are prepared and evaluated as provided herein. Examples of such dye-labeled nucleotides include:
Several of the structures shown above include the hyp10 linker which includes the sequence Gly-Hyp-Hyp-Hyp-Hyp-Hyp-Hyp-Hyp-Hyp-Hyp-Hyp from the N-terminal end. […] The remaining dye-labeled nucleotides are evaluated in a sequencing assay, as described herein. […] Additional structures including different numbers of hydroxyprolines, including hyp20 and hyp30 moieties, may also be incorporated into fluorescent labeling reagents.

[2] = target: bovine serum albumin (BSA) (Bos taurus, UniProt P02769); assay: fluorescence of BSA labeled with different ATTO 532 labeling moieties; conditions: BSA labeled with ATTO 532, FIG. 16
Source text: The effect of functional separation between an optically detectable moiety (e.g., fluorescent dye) and a substrate was investigated using bovine serum albumin (BSA). BSA was fluorescently labeled with ATTO 532 according to the following schemes: in the absence of a linker providing separation between the BSA and ATTO 532 moieties (“Atto532”), using PEG16 as a linker to provide separation between the BSA and ATTO 532 moieties (“Atto532-PEG16”), using a hyp10 moiety to provide separation between the BSA and ATTO 532 moieties (“Atto532-hyp10”), and using a hyp30 moiety to provide separation between the BSA and ATTO 532 moieties (“Atto532-hyp30”). Labeled BSA was purified from free dye using Millipore centrifugal filters.

Chain of bovine serum albumin (BSA) (P02769 25-607): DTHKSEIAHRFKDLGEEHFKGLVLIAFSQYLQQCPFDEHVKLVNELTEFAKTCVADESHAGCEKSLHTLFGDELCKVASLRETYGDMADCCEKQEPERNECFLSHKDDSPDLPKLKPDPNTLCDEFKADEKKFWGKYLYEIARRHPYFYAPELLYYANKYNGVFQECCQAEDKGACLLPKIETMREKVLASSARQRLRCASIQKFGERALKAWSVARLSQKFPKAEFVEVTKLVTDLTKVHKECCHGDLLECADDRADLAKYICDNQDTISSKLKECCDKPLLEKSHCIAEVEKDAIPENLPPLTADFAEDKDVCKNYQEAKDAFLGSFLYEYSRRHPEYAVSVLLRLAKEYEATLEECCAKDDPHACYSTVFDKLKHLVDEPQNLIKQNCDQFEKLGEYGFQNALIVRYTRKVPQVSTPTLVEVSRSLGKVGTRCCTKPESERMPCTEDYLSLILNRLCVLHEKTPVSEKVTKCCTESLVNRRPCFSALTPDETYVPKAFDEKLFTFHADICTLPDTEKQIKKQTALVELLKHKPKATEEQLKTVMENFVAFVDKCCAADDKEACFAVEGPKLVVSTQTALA

Molecule: CCN1CCCc2cc3c(cc21)C(C)(C)C1=CC(=[N+](C)C)C=CC1=C3c1ccccc1C(=O)N(C)CCCC(=O)NC(CS(=O)(=O)[O-])C(=O)NCCSSCCC(=O)NCC#Cc1cn([C@H]2C[C@@H](O)[C@@H](COP(=O)(O)OP(=O)(O)OP(=O)(O)O)O2)c2nc(N)[nH]c(=O)c12 (some centres unmarked) [G4]
- quenching [1]: highly quenched

Molecule: Atto532-PEG16: BSA labeled with ATTO 532 using PEG16 as a linker [reference compound]
- self-quenching on BSA protein [2]: did not improve quenching over ATTO 532 alone
